# In patent publication US5985836A, “Alpha-1 proteinase inhibitor binding peptides” (Bayer Corporation, priority 1998, dated 1999):
# Ends that are not written are not given here.
# Assays:
# Immunoglobulin A (IgA) = experiment: Purification from Effluent II+III, IgA mass balance; format: binding, human; settings: 1 ml Eff. II+III, 4° C.
# Experimental: (§1) Sequences 1-11 and 15 were assayed with Effluent II+III (Eff. II+III). Eff. II+III is a process intermediate in the Cohn plasma fractionation process. The feed stream contains 20% (by volume) ethanol, 20-25 mg/ml hSA and approximately 1 mg/ml AlPI. The stream also contains other proteins including anti-thrombin III (AT3), immunoglobin G (IgG), immunoglobin A (IgA), apolipoprotein alpha-1 (Apo A-1), transferrin (Trf), haptoglobin (Hpt), and alpha-1 acid glycoprotein (AAG) at concentrations ranging from 0.1-1 mg/ml.
# (§2) The columns were assayed using the same technique as the hSA+AlPI experiments, allowing for a 10 minute residence time followed by a constant flow rate of 865 μl/min with step elutions of 1M NaCl, 3M NaCl, and 2% acetic acid. All experiments were conducted at 4° C. The mass balances for the injection of 1 ml Eff. […] The AlPI was enriched from 3% of the total protein in the feed to upwards of 50% in the acid eluate.
# A1PI [1] = biological target: T1, A1PI (Homo sapiens, UniProt P01009); experiment: Purification of A1PI from Effluent II+III on peptide column, A1PI mass balance; format: binding; settings: 1 ml Eff. II+III, 4° C.; for Mass A1PI per Eluate Fraction, 1M NaCl / Mass A1PI per Eluate Fraction, 2% Acetic Acid / Mass A1PI per Eluate Fraction, Flowthrough: * Below detection limit
# T1 construct: Human plasma is currently the only approved source of therapeutic AlPI
# T1 sequence (P01009 25-418): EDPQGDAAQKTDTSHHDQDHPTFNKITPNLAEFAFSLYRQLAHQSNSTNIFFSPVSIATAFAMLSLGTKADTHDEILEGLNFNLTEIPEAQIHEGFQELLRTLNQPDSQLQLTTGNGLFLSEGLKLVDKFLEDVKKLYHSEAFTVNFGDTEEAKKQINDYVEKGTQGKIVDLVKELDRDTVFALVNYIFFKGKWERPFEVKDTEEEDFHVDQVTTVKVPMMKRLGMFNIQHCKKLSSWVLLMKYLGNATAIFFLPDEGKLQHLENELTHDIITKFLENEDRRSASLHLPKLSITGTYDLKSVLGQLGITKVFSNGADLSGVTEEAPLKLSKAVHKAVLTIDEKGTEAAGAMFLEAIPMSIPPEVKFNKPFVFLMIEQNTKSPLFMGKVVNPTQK
# Experimental: as §1, §2
# [2] = biological target: T2, apolipoprotein alpha-1 (Apo A-1) (Homo sapiens, UniProt P02647); experiment: Purification from Effluent II+III, Apo A-1 mass balance; format: binding; settings: 1 ml Eff. II+III, 4° C.
# T2 construct: Eff; II+III is a process intermediate in the Cohn plasma fractionation process; tissue Bayer Corporation (Clayton, N.C.); host or cells: plasma fraction: Cohn Effluent II+III
# T2 sequence (P02647 19-267): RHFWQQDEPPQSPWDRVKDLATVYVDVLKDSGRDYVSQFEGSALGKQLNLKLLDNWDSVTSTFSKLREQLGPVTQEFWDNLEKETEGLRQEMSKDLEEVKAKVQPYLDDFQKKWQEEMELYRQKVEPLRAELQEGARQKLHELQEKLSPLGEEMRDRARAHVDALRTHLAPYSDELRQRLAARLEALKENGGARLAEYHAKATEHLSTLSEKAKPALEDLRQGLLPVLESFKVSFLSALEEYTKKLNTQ
# Experimental: as §1, §2
# Immunoglobulin G (IgG) = experiment: Purification from Effluent II+III, IgG mass balance; format: binding, human; settings: 1 ml Eff. II+III, 4° C.
# Experimental: as §1, §2
# A1PI [3] = biological target: T1, A1PI; experiment: A1PI binding on peptide-resin column, injection of 1 mg A1PI in equilibration buffer; settings: for % of Total A1PI Eluted by Fraction (Based on Absorbance at 280 nm), 1M NaCl / % of Total A1PI Eluted by Fraction (Based on Absorbance at 280 nm), 2% Acetic Acid / % of Total A1PI Eluted by Fraction (Based on Absorbance at 280 nm), Flowthrough: Trp position mutations, 1 mg A1PI
# Procedure, shortened: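 Percent of total eluted A1PI per fraction (flowthrough, NaCl steps, 2% acetic acid) determined by A280 integration or immunonephelometry. Columns of peptide-derivatized A-Totda-Toyopearl resin (0.1 mmole/g) received 1 mg A1PI at 4 °C or 20 °C, flow 865 or 523 μl/min.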
# A1PI [4] = biological target: T1, A1PI; experiment: A1PI purification from 5 mg hSA + 1 mg A1PI on peptide column, A1PI mass balance; format: binding; settings: A1PI, 5 mg hSA + 1 mg A1PI, 4° C.
# Experimental: Confirmatory binding assays were performed in a column chromatographic format on a microbore HPLC using individual peptide sequences synthesized directly onto the Toyopearl 650 M Chelate resin which had been modified with Totda followed by an alanine residue (A-Totda-Toyopearl), at a final substitution density of 0.1 mmole/g resin. The resin was packed into 0.4×5 cm columns (Thomson, Springfield, Va.) and tested on the Michrom HPLC system (Michrom BioResources, Auburn, Calif.). The elution program for all trials utilized the following method. The column was pre-equilibrated with equilibration buffer (as above). 1 ml of sample was injected and allowed sufficient time to flowthrough the column using equilibration buffer. The column was then washed with step elutions of 1M NaCl and 3M NaCl in equilibration buffer. The column was exposed to equilibration buffer with 0.1M NaCl. Any remaining protein was eluted with elution buffer (2% by volume glacial acetic acid in water).
# A Gilson FC204 fraction collector at the HPLC outlet collected individual eluates for further analysis. Fractions collected from the 2% acetic acid eluates were neutralized with 2M Tris, pH 10.5 to bring the pH to neutrality. The protein samples were reconstituted in equilibration buffer unless otherwise stated. The samples were analyzed by the integration of the absorbance at 280 nm or by immunonephelometry. The specific method of determination is presented for each figure.
# Columns were assayed with a mixture of 5 mg human serum albumin (hSA)+1 mg AlPI at 4° C. (Table 4, Seq. ID 1-11, 15, 17) and 20° C. (Table 5, Seq. ID 1-10, 13, 15, 17). The chromatography method was modified to provide for a 10 minute residence time of sample in the column by decreasing the flow to 17 μl/min (10 cm/hr) upon injection. Following the incubation, the flow was set at 865 μl/min (413 cm/hr) for the step elutions of 1M NaCl, 3M NaCl, and 2% acetic acid. The mass balances presented are based upon immunonephelometry. The Percent Eluted value is protein-specific and based on the amount of the protein eluted in a […]
# [5] = * as in Tables 4, 5 (below detection limit)
# [6] = A1PI, * as in Tables 4, 5 (below detection limit)
# [7] = 1 mg A1PI in equilibration buffer, 4° C.
# [8] = 1 mg A1PI in equilibration buffer, 20° C.
substance,measurement,setting,value
QYHFWY,"Percent Eluted by Fraction, 1M NaCl",Immunoglobulin A (IgA),31%
same,"Percent Eluted by Fraction, 2% Acetic Acid",Immunoglobulin A (IgA),38%
same,"Percent Eluted by Fraction, 3M NaCl",Immunoglobulin A (IgA),0%
same,"Percent Eluted by Fraction, Flow",Immunoglobulin A (IgA),31%
same,"Mass Protein per Eluate Fraction, 1M NaCl",Immunoglobulin A (IgA); [5],0.11 mg
same,"Mass Protein per Eluate Fraction, 2% Acetic Acid",Immunoglobulin A (IgA); [5],0.13 mg
same,"Mass Protein per Eluate Fraction, Flow",Immunoglobulin A (IgA); [5],0.11 mg
same,"Percent Eluted by Fraction, 1M NaCl",A1PI [1]; A1PI,6%
same,"Percent Eluted by Fraction, 2% Acetic Acid",A1PI [1]; A1PI,75%
same,"Percent Eluted by Fraction, 3M NaCl",A1PI [1]; A1PI,0%
same,"Percent Eluted by Fraction, Flow",A1PI [1]; A1PI,20%
same,"Mass Protein per Eluate Fraction, 1M NaCl",A1PI [1]; [6],0.06 mg
same,"Mass Protein per Eluate Fraction, 2% Acetic Acid",A1PI [1]; [6],0.80 mg
same,"Mass Protein per Eluate Fraction, Flow",A1PI [1]; [6],0.21 mg
same,"Percent Eluted by Fraction, 1M NaCl",[2],0%
same,"Percent Eluted by Fraction, 2% Acetic Acid",[2],0%
same,"Percent Eluted by Fraction, 3M NaCl",[2],0%
same,"Percent Eluted by Fraction, Flow",[2],0%
same,"Percent Eluted by Fraction, 1M NaCl",Immunoglobulin G (IgG),10%
same,"Percent Eluted by Fraction, 2% Acetic Acid",Immunoglobulin G (IgG),0%
same,"Percent Eluted by Fraction, 3M NaCl",Immunoglobulin G (IgG),0%
same,"Percent Eluted by Fraction, Flow",Immunoglobulin G (IgG),90%
same,"Mass Protein per Eluate Fraction, 1M NaCl",Immunoglobulin G (IgG); [5],0.02 mg
same,"Mass Protein per Eluate Fraction, Flow",Immunoglobulin G (IgG); [5],0.21 mg
same,"Percent A1PI Eluted by Fraction Based on Absorbance at 280 nm, 1M NaCl",A1PI [3]; [7],74%
same,"Percent A1PI Eluted by Fraction Based on Absorbance at 280 nm, 2% Acetic Acid",A1PI [3]; [7],26%
same,"Percent A1PI Eluted by Fraction Based on Absorbance at 280 nm, Flowthrough",A1PI [3]; [7],0%
same,"Percent A1PI Eluted by Fraction, 1M NaCl",A1PI [3]; [8],0%
same,"Percent A1PI Eluted by Fraction, 2% Acetic Acid",A1PI [3]; [8],4%
same,"Percent A1PI Eluted by Fraction, Flowthrough",A1PI [3]; [8],96%
same,"Mass Protein per Eluate Fraction, 1M NaCl",A1PI [4]; * Below detection limit,0.35 mg
same,"Mass Protein per Eluate Fraction, 2% Ac. Acid",A1PI [4]; * Below detection limit,0.35 mg
same,"Mass Protein per Eluate Fraction, Flow",A1PI [4]; * Below detection limit,0.06 mg
same,"Percent Eluted by Fraction, 1M NaCl",A1PI [4]; relative to total eluted,46%
same,"Percent Eluted by Fraction, 2% Ac. Acid",A1PI [4]; relative to total eluted,46%
same,"Percent Eluted by Fraction, 3M NaCl",A1PI [4]; relative to total eluted,0%
same,"Percent Eluted by Fraction, Flow",A1PI [4]; relative to total eluted,7%
V I A L V R: VIWLVR with Trp at position 3 replaced by Ala (VIALVR),"Mass A1PI per Eluate Fraction, 1M NaCl",A1PI [1]; Table 11,0.05 mg
same,"Mass A1PI per Eluate Fraction, 2% Acetic Acid",A1PI [1]; Table 11,0.35 mg
same,"Mass A1PI per Eluate Fraction, Flowthrough",A1PI [1]; Table 11,0.18 mg
same,"Percent Eluted by Fraction, 1M NaCl","A1PI [1]; Table 11, A1PI",8%
same,"Percent Eluted by Fraction, 2% Acetic Acid","A1PI [1]; Table 11, A1PI",61%
same,"Percent Eluted by Fraction, Flowthrough","A1PI [1]; Table 11, A1PI",31%
same,"% of Total A1PI Eluted by Fraction (Based on Absorbance at 280 nm), 1M NaCl",A1PI [3]; 4° C.,92%
same,"% of Total A1PI Eluted by Fraction (Based on Absorbance at 280 nm), 2% Acetic Acid",A1PI [3]; 4° C.,8%
same,"% of Total A1PI Eluted by Fraction (Based on Absorbance at 280 nm), Flowthrough",A1PI [3]; 4° C.,0%
same,"% of Total A1PI Eluted by Fraction (Based on Absorbance at 280 nm), 1M NaCl",A1PI [3]; 20° C.,36%
same,"% of Total A1PI Eluted by Fraction (Based on Absorbance at 280 nm), 2% Acetic Acid",A1PI [3]; 20° C.,53%
same,"% of Total A1PI Eluted by Fraction (Based on Absorbance at 280 nm), Flowthrough",A1PI [3]; 20° C.,10%
V I L L V R: VIWLVR with Trp at position 3 replaced by Leu (VILLVR),"Mass A1PI per Eluate Fraction, 1M NaCl",A1PI [1]; Table 11,0.07 mg
same,"Mass A1PI per Eluate Fraction, 2% Acetic Acid",A1PI [1]; Table 11,0.54 mg
same,"Mass A1PI per Eluate Fraction, Flowthrough",A1PI [1]; Table 11,0.42 mg
same,"Percent Eluted by Fraction, 1M NaCl","A1PI [1]; Table 11, A1PI",7%
same,"Percent Eluted by Fraction, 2% Acetic Acid","A1PI [1]; Table 11, A1PI",52%
same,"Percent Eluted by Fraction, Flowthrough","A1PI [1]; Table 11, A1PI",41%
same,"% of Total A1PI Eluted by Fraction (Based on Absorbance at 280 nm), 1M NaCl",A1PI [3]; 4° C.,7%
same,"% of Total A1PI Eluted by Fraction (Based on Absorbance at 280 nm), 2% Acetic Acid",A1PI [3]; 4° C.,93%
same,"% of Total A1PI Eluted by Fraction (Based on Absorbance at 280 nm), Flowthrough",A1PI [3]; 4° C.,0%
